Laboratory results taken from patent publication US20250297026A1 (PETMEDIX, published 2025).
Residue numbers refer to the chain shown, from its start.

Biological target: T1, canine CD20 (canine, UniProt Q3C2E2 1-297)
T1 chain: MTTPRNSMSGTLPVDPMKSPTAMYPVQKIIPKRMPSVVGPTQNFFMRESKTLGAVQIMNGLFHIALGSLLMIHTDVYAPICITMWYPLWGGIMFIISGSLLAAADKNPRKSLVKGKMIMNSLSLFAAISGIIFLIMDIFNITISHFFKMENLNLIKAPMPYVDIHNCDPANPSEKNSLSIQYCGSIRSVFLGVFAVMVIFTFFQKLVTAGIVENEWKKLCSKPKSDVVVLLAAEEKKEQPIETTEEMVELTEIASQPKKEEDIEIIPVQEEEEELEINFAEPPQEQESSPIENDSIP
Assay: cell-based or functional assay

B1: PMX066 (antibody, V domains shown)
VH: AVQLVESGGDLVKPGGSLRLSCVASGITFSRYHMSWVRQAPGKGLQWVAYINSGGSATSYTDAVKGRFSISRDNGKNTLYLQMNSLRVEDSAVYYCTTLDLWGQGTLVTVSS
VL: SYVLTQLPSKNVTLKQPAHITCGGDNIGSKSVHWYQQKLGQAPVLIIYYDSRRPTGIPERFSGANSGNTATLTINGALAEDEADYYCQMWDSSANVFGGGTHLTVL
- ADCC EC50: 0.15 nM
- ADCC Maximum killing (%): 47%
- CDC EC50: 12.1 nM
- CDC Maximum killing (%): 98.5%

B2: PMX067 (antibody, V domains shown)
VH: EIQLVESGGDLVKPGGSLRLSCVASGFTFSRYHMSWVRQAPGKGLQWVAYINTGGSNTNYADAVKGRFTISRDNAKNTLYLQMNSLRAEDTAVYYCTTLDSWGQGTLVTVSS
VL: B1 VL with S9F, N75S, M89V, A94V
- ADCC EC50: 0.13 nM
- ADCC Maximum killing (%): 50%
- CDC EC50: 11.3 nM
- CDC Maximum killing (%): 97.8%

B3: PMX069 (antibody, V domains shown)
VH: EMQLVESGGALVKPGGSLRLSCVASGFTFRRYHMSWVRQAPGQGLQWVAYIDSDGSPTSYGDSVKGRFTISRDNAKNTLFLQMNSLRVDDTAVYYCTTLDYWGRGTLVTVSS
VL: B1 VL with L7V, S29G, V44L, S51T, N75S, G76R, M89V, A94G, L106I
- ADCC EC50: 0.09 nM
- ADCC Maximum killing (%): 38%
- CDC EC50: 7.6 nM
- CDC Maximum killing (%): 98.2%

B4: PMX071 (antibody, V domains shown)
VH: EVHLVESGGDLVKPGGSLRLSCVASGITFNRYYMNWVRQTPGKGLQWVAYIDSGGSPTTYADAVKGRFTISRDNAKNTLYLQMNSLRAEDTAVYYCTSFDYWGQGTLVTVSS
VL: B1 VL with V44I, S51T, R52S, N75S, M89V
- ADCC EC50: 0.15 nM
- ADCC Maximum killing (%): 41%
- CDC EC50: 28.9 nM
- CDC Maximum killing (%): 94.3%

B5: PMX072 (antibody, V domains shown)
VH: B2 VH with I2V, Y50F, G55R, N57S, K65A, T97S, S101Y
VL: B1 VL with R52S, N75S, M89V
- ADCC EC50: 0.18 nM
- ADCC Maximum killing (%): 50%
- CDC EC50: 19.6 nM
- CDC Maximum killing (%): 91.6%

B6: PMX073 (antibody, V domains shown)
VH: B4 VH with H3Q, I27F, N30S, T40A, Y50F, D52T, P57S, T59S, A61G
VL: B1 VL with D50A, R52S, N75S, M89V
- ADCC EC50: 0.21 nM
- ADCC Maximum killing (%): 48%
- CDC EC50: 11.1 nM
- CDC Maximum killing (%): 96.3%

B7: PMX077 (antibody, V domains shown)
VH: B4 VH with H3Q, N30S, T40A, D52N
VL: B1 VL with V44I, S51T, R52S, N75S, M89V
- ADCC EC50: 0.13 nM
- ADCC Maximum killing (%): 42%
- CDC EC50: 9.84 nM
- CDC Maximum killing (%): 98.7%

B8: PMX079 (antibody, V domains shown)
VH: B2 VH with I2V, F27L, Y50F, T53S, G55R, N57D, N59T, L99F, S101Y
VL: B1 VL with V44A, R52S, N75S, M89V
- ADCC EC50: 0.12 nM
- ADCC Maximum killing (%): 52%
- CDC EC50: 16.4 nM
- CDC Maximum killing (%): 96.7%

B9: PMX074 (antibody, V domains shown)
VH: EVQLVESGGDLVKPGGSLRLSCVASGFTFSRYYMTWVRQAPGKGLQWVAYINSDRRSTTYADAVKGRFTISRDNAKNTLYLQMNSLRAEDTAVYYCTTLEYWGQGTLVTVSS
VL: B1 VL with M89V
- ADCC EC50: 0.12 nM
- ADCC Maximum killing (%): 51%
- CDC EC50: 6.8 nM
- CDC Maximum killing (%): 98.9%

B10: PMX075 (antibody, V domains shown)
VH: EVQLVESGGDLVKPGGSLRLSCVASGITFSRYHMSWVRQAPGKGLQWVAFINTGRSSTNYADAVAGRFTISRDNAKNTLYLQMNGLTVEDTAVYYCSTLDYWGQGTLVTVSS
VL: B1 VL with N11S, V44I, S51N, R52N, N75S, Q88H, M89V, A94V
- ADCC EC50: 0.14 nM
- ADCC Maximum killing (%): 46%
- CDC EC50: 6.02 nM
- CDC Maximum killing (%): 98.9%

B11: PMX076 (antibody, V domains shown)
VH: B4 VH with H3Q, N30S, T40A, N77K, T78A
VL: B1 VL with R52S, N75S, Y86F, M89V
- ADCC EC50: 0.14 nM
- ADCC Maximum killing (%): 49%
- CDC EC50: 7.76 nM
- CDC Maximum killing (%): 98.3%

B12: PMX078 (antibody, V domains shown)
VH: EVQLVESGGDLVKPGGSLRLSCVASGLTFSRYHMSWIRQAPGKGLQWVAYISSGGSSTNYAGSVKGRFTVSRDNAKNTLYLQMNSLRAEDTAVYYCTSLDYWGQGTLVTVSS
VL: B1 VL with N75S, M89V, A94D
- ADCC EC50: 0.22 nM
- ADCC Maximum killing (%): 40%
- CDC EC50: 9.08 nM
- CDC Maximum killing (%): 98.8%

B13: PMX080 (antibody, V domains shown)
VH: B4 VH with H3Q, I27L, N30S, T40A, T59N, T97S
VL: B1 VL with L4V, K10N, N11T, N75S, M89V
- ADCC EC50: 0.13 nM
- ADCC Maximum killing (%): 50%
- CDC EC50: 21.9 nM
- CDC Maximum killing (%): 96.2%

B14: PMX081 (antibody, V domains shown)
VH: EVQLVQSGGDLVKPGGSLRLSCVASGYTFTRYHMSWVRQAPGKGLQWVAFINSDGTGITYGDAVKGRFTISRDNAKNTLYLQMNSLRAEDTAIYYCTTFDSWGQGTLVTVSS
VL: B1 VL with V44I, N75S, M89V, A94G
- ADCC EC50: 0.16 nM
- ADCC Maximum killing (%): 51%
- CDC EC50: 10.6 nM
- CDC Maximum killing (%): 98.5%
